The text below walks through data of patent publication US20170044545.

The data set deals with Autotaxin (ENPP2, NPP2) (Homo sapiens) (UniProt Q13822). The data set is described as follows: inhibition. The settings on record: 2'-F pyrimidines, 2'-OH purines.

Regarding “CGGAUACGUCUCACUUCGUCNNNNNNNNNNNNNNNNNNNNNNNNNNNNNNCAGAGCGUUUAGAGUGCGGUCCC [30N RNA pool]”, the IC50 is more than 1000 nM.

As for “GUACGAAGACGCAUCUCACNNNNNNNNNNNNNNNNNNNNNNNNNNNNNNNNNNNNNNNNGUUCCAUGUCCUGUUGCCACCC [40N RNA pool]”, the IC50 was more than 1000 nM.
